{"source": "paper PMC12955825", "about": "(Med (New York, N.Y.), 2025)", "test_in_all_cases": "phage-binding assay", "key": {"[1]": {"target": "T1, CASQ1, human recombinant protein (human, UniProt P31415 35-396)", "T1 sequence (looked up)": "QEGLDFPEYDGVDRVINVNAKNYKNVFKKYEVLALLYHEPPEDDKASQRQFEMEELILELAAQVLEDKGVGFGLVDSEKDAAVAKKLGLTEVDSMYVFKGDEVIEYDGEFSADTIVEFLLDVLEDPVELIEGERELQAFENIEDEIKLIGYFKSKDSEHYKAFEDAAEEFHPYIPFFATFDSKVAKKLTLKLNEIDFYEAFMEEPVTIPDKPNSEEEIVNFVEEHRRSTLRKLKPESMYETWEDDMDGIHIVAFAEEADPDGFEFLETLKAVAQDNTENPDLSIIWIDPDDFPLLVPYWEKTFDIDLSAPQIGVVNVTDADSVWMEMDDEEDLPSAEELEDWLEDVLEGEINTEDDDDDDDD"}, "[2]": {"target": "T2, fructose-bisphosphate aldolase A (human, UniProt P04075 1-364)", "T2 sequence (looked up)": "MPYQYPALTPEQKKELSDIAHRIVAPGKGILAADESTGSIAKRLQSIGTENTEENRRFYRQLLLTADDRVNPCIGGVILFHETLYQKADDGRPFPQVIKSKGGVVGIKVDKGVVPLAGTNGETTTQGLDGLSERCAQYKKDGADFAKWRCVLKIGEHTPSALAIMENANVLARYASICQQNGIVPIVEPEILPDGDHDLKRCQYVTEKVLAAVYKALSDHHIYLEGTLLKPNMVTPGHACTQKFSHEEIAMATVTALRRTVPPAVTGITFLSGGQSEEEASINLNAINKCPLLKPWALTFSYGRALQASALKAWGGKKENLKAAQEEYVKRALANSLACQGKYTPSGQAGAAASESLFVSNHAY"}, "[3]": {"target": "T3, annexin A1 (human, UniProt P04083 1-346)", "T3 sequence (looked up)": "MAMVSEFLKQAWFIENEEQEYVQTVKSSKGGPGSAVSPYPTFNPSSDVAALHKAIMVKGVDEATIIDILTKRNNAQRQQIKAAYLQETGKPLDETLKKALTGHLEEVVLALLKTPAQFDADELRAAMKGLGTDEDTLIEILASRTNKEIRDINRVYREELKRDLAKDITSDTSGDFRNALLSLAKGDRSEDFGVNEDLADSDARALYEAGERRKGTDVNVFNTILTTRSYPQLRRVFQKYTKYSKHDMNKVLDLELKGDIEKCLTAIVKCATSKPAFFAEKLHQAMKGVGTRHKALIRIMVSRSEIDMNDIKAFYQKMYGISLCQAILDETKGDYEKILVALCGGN"}, "[4]": {"target": "T4, thioredoxin-dependent peroxide reductase (mitochondrial) (human, UniProt P30048 62-256)", "T4 sequence (looked up)": "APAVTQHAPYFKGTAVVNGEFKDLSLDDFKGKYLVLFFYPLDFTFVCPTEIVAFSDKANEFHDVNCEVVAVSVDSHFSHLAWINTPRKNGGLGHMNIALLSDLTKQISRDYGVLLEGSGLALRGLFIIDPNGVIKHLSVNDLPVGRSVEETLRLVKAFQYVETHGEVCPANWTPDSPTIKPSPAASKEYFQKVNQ"}, "[5]": {"target": "BAG family molecular chaperone regulator 3 (human, UniProt O95817 1-575)", "sequence (O95817 whole entry)": "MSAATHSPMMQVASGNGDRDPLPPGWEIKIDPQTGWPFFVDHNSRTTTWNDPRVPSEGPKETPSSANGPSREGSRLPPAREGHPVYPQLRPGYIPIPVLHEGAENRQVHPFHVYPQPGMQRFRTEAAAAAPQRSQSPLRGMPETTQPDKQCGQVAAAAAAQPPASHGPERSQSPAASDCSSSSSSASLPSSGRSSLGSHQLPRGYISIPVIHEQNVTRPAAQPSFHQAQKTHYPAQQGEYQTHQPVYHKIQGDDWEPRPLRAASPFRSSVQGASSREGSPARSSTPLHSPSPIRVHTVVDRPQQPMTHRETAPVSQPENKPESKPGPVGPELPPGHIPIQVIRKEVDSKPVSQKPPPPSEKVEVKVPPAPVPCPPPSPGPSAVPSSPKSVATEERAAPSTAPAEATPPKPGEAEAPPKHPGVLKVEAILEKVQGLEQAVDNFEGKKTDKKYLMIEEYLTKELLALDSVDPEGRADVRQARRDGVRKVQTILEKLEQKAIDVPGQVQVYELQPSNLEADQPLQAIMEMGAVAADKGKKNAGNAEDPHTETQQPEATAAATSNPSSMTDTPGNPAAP"}, "[6]": {"target": "78 kDa glucose-regulated protein (human, UniProt P11021 19-654)", "sequence (P11021 19-654)": "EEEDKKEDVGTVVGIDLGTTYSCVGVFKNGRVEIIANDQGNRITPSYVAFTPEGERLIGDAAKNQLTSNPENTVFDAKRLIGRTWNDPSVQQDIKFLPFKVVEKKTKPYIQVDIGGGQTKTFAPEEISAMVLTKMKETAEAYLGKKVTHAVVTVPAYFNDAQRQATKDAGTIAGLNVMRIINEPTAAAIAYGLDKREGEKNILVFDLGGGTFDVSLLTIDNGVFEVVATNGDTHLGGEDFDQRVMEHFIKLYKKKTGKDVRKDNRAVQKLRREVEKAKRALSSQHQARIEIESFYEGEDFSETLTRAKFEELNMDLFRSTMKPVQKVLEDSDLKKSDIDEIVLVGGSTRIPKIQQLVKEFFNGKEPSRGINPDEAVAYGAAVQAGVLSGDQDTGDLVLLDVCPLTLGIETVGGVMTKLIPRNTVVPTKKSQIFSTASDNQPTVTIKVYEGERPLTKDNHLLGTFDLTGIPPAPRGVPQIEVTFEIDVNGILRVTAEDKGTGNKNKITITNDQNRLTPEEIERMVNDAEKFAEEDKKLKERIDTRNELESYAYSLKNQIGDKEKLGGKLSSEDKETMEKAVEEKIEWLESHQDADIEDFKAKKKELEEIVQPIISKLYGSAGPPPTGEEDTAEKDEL"}, "[7]": {"target": "HSP27, human recombinant protein (human, UniProt P04792 1-205)", "sequence (P04792 whole entry)": "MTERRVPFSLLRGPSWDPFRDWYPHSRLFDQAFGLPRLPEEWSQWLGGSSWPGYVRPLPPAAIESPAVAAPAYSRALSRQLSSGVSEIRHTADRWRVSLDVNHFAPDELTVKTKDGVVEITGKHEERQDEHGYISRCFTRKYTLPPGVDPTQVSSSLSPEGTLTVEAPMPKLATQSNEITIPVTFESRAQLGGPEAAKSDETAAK"}, "[8]": {"target": "heat shock cognate 71 kDa protein (human, UniProt P11142 1-646)", "sequence (P11142 whole entry)": "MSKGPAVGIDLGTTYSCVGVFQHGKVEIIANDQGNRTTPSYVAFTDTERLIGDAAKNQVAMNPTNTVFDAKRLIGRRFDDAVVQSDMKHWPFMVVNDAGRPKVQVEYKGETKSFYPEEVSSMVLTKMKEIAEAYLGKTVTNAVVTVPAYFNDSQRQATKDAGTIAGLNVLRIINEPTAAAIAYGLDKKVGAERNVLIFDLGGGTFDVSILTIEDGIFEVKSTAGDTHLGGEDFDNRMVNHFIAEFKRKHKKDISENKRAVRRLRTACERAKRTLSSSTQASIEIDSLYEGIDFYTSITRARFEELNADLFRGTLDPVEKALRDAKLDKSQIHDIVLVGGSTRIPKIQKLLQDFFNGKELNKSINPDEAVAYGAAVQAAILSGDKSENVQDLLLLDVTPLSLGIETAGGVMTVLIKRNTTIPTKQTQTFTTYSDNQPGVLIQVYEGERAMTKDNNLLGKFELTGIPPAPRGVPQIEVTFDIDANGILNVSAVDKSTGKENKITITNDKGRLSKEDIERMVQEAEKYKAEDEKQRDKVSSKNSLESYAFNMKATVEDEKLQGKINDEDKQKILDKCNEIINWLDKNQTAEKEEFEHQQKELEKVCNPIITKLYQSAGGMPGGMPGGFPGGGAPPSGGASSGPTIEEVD"}, "[9]": {"target": "T5, complement component 1 Q subcomponent-binding protein (mitochondrial) (human, UniProt Q07021 74-282)", "T5 sequence (looked up)": "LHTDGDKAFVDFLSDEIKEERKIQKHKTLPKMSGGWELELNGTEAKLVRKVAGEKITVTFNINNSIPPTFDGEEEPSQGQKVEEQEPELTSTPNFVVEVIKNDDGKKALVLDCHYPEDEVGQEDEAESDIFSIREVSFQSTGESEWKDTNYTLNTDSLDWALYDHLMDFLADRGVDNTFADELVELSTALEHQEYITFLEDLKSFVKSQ"}, "[10]": {"target": "T6, calumenin (human, UniProt O43852 20-315)", "T6 sequence (looked up)": "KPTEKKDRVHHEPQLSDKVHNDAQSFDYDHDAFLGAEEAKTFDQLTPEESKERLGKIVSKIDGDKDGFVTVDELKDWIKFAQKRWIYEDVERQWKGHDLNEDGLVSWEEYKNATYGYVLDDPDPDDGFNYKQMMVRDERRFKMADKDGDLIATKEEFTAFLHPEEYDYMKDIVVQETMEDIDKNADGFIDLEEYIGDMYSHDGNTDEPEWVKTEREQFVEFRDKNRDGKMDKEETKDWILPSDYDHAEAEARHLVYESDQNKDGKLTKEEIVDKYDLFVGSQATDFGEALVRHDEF"}, "[11]": {"target": "peptidyl-prolyl cis-trans isomerase B (human, UniProt P23284 34-216)", "sequence (P23284 34-216)": "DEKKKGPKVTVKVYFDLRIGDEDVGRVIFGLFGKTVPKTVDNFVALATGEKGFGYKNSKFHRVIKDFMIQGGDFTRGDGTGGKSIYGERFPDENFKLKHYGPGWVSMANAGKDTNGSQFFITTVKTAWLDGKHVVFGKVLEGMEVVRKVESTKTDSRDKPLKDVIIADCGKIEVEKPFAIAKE"}, "[12]": {"target": "lactotransferrin (human, UniProt P02788 20-710)", "sequence (P02788 20-710)": "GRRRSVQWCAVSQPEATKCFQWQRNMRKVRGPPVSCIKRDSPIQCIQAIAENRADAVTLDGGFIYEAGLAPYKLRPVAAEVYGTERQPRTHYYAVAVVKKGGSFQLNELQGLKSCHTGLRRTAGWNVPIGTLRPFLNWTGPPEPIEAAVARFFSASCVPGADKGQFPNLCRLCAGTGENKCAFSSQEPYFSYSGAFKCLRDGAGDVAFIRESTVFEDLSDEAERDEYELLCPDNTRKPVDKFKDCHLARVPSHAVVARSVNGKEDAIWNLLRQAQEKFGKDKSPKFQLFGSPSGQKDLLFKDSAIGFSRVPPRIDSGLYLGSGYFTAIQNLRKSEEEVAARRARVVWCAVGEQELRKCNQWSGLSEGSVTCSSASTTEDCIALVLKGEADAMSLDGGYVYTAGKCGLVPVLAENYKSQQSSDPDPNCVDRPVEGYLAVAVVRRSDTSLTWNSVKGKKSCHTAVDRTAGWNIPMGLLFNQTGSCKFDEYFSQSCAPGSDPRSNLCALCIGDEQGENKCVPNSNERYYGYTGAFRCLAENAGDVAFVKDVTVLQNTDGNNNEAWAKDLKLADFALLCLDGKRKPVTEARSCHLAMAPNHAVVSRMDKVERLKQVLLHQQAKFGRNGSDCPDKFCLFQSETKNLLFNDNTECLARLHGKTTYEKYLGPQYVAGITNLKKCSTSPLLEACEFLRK"}, "[13]": {"target": "T7, CRYAB, human recombinant protein (human, UniProt P02511 1-175)", "T7 sequence (looked up)": "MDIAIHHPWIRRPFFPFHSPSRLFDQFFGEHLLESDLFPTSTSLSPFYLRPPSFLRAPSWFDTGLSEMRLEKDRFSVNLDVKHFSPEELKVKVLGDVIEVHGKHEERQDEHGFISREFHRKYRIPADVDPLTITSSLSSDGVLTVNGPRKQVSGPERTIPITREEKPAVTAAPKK"}, "[14]": {"target": "desmin (human, UniProt P17661 1-470)", "sequence (P17661 whole entry)": "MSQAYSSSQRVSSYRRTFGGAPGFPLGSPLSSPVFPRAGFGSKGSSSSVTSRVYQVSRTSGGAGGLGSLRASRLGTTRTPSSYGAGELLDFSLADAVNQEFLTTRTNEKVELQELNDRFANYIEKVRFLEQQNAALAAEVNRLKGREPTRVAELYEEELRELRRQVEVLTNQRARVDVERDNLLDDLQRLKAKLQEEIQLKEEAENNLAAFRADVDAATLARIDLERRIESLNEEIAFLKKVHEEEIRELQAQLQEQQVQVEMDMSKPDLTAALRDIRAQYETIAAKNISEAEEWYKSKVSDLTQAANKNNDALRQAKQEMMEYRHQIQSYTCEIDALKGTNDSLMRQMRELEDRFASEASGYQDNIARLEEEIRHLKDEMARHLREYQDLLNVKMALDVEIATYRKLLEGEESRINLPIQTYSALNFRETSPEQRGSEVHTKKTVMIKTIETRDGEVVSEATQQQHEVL"}}, "note": "Bridge positions count the residues as written; N and C are the ends. Ends that are not written are not given here."}
{"binder": "CLRGFQRVC (disulfide 1-9)", "note": "[CLRGFQRVC-displaying phage]", "values": [{"measurement": "binding result", "setting": "[1]", "result": "binds"}]}
{"binder": "CKWEGLDMAC (disulfide 1-10; also: displayed on phage)", "note": "[CKWEGLDMAC-displaying phage]", "values": [{"measurement": "binding result", "setting": "[2]", "result": "binds"}]}
{"binder": "CLRGFPALVC (disulfide 1-10)", "note": "[CLRGFPALVC-displaying phage]", "values": [{"measurement": "binding result", "setting": "[1]", "result": "binds"}]}
{"binder": "CHKPPNFGSC (disulfide 1-10)", "note": "[CHKPPNFGSC-displaying phage]", "values": [{"measurement": "binding result", "setting": "[3]", "result": "binds"}]}
{"binder": "CTESFQKHLC (disulfide 1-10)", "note": "[CTESFQKHLC-displaying phage]", "values": [{"measurement": "binding result", "setting": "[4]", "result": "binds"}]}
{"binder": "CEGKEDMQGC (disulfide 1-10)", "note": "[CEGKEDMQGC-displaying phage]", "values": [{"measurement": "binding result", "setting": "[5]", "result": "binds"}]}
{"binder": "CVLRFFSSC (disulfide 1-9)", "note": "[CVLRFFSSC-displaying phage]", "values": [{"measurement": "binding result", "setting": "[6]", "result": "binds"}]}
{"binder": "CLVSGRSRC (disulfide 1-9)", "note": "[CLVSGRSRC-displaying phage]", "values": [{"measurement": "binding result", "setting": "[7]", "result": "binds"}]}
{"binder": "CLNVSGRSC (disulfide 1-9)", "note": "[CLNVSGRSC-displaying phage]", "values": [{"measurement": "binding result", "setting": "[8]", "result": "binds"}]}
{"binder": "CSRGSPDARC (disulfide 1-10)", "note": "[CSRGSPDARC-displaying phage]", "values": [{"measurement": "binding result", "setting": "[9]", "result": "binds"}]}
{"binder": "CPTFFAVPC (disulfide 1-9)", "note": "[CPTFFAVPC-displaying phage]", "values": [{"measurement": "binding result", "setting": "[10]", "result": "binds"}]}
{"binder": "CASAVPISC (disulfide 1-9)", "note": "[CASAVPISC-displaying phage]", "values": [{"measurement": "binding result", "setting": "[11]", "result": "binds"}]}
{"binder": "CGILGPWMAC (disulfide 1-10)", "note": "[CGILGPWMAC-displaying phage]", "values": [{"measurement": "binding result", "setting": "[12]", "result": "binds"}]}
{"binder": "CRPARVRGAC (disulfide 1-10)", "note": "[CRPARVRGAC-displaying phage]", "values": [{"measurement": "binding result", "setting": "[13]", "result": "binds"}]}
{"binder": "CRGFVRGSC (disulfide 1-9)", "note": "[CRGFVRGSC-displaying phage]", "values": [{"measurement": "binding result", "setting": "[13]", "result": "binds"}]}
{"binder": "CSRAKGRGAC (disulfide 1-10)", "note": "[CSRAKGRGAC-displaying phage]", "values": [{"measurement": "binding result", "setting": "[14]", "result": "binds"}]}
